Measurements reported in patent US20190351049A1 (Regeneron, published 2019).

B1: H1H15228P2 (antibody, V domains shown)
VH: EVQLVESGGGLVQPGGSLRLSCAVFGFTFSGYAMSWVRQAPGKGLEWVSAISGGGGSTYYTDSVKGRFTISRDNSKNTLYLQMNSLRAEDTAVYYCASYWNNGMDVWGQGTTVTVSS
VL: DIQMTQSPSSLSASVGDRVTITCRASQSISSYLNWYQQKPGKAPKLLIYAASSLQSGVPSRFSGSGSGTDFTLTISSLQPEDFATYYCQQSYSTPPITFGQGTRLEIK
B2: H1H15231P2 (antibody, V domains shown)
VH: QLQLQESGPGLVKPSETLSLTCTVSGGSISSNTYYWGWIRQPPGKGLEWIGTIYYTGNTYYKSSLKSRVTISVDTSRNQFSLKLTSVTAADTAVYYCARQFADLNYVDYWGQGTLVTVSS
VL: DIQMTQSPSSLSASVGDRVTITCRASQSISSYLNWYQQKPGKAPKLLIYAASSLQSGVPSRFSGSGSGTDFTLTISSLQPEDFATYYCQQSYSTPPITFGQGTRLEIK
B3: H1H15237P2 (antibody, V domains shown)
VH: EVQLVESGGGLVQPGGSLRLSCAASGFTSNSYPMSWVRQAPGKGLEWVSGISGRGGNTYYADSVKGRFTISRDNSKNTLYLQMNSLRVEDTAVYYCAETGTAFDYWGQGTLVTVSS
VL: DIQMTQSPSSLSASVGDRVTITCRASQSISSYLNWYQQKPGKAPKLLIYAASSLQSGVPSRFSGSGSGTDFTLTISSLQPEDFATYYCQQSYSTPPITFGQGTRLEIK
B4: H1H15233P2 (antibody, V domains shown)
VH: EVQLVESGGGLVQPGGSLRLSCAASGFSFSSYGMNWVRQAPGKGLEWVSAISGRGGNTYSADSVKGRFTISRDNSKNTLFLQMNGLRAEDSAFYYCAKVGTYSSSSPFDYWGQGTLVTVSS
VL: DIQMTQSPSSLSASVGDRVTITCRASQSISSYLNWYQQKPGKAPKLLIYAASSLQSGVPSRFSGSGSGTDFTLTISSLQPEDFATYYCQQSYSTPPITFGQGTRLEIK
B5: H1H15259P2 (antibody, V domains shown)
VH: QVQLVESGGGVVQPGRSLRLSCAASGFTFSNYGIHWVRQAPGKGLEWVAGIYYDGSNKYYGDSVKGRFTISRDNSKNTLYLQMNSLRAEDTAVYYCARDRGNNHYYHNNPYYYYHGLDVWGQGTTVTVSS
VL: not shown
B6: H1H15264P2 (antibody, V domains shown)
VH: QLQLQESGPGLVKPSETLSLTCSVSGGSINNNNYYWGWIRQPPGRGLEWIGSFFYSGPTYYNPSLRSRVTISVDTSKNQFSLKLNSVTAADTAIYYCARQDGNYYPLFDYWGQGTLVTVSS
VL: not shown
B7: H1H15208P (antibody, V domains shown)
VH: EVQLVESGGDLVQPGGSLRLSCTASGFTFSNYEMNWVRQAPEKGLDWVSFISSSGGAIYYADSVKGRFTISRDNAKNSLYLQMNSLRAEDSAIYFCARSDSGGNSRYWGQGTLVTVSS
VL: DIQMTQSPSSVSASVGDRVTVTCRASQDISNWLVWYQQKPGKAPKFLIYAASSLQSGVPSRFSGSGSGTDFTLTISSLQPEDFATYYCQQANSFPPTFGGGTKVEIK
B8: H1H15253P2 (antibody, V domains shown)
VH: EVQLVESGGGLVQPGGSLRLSCVVSGFTSRNYAMSWVRQAPGKGLEWVSAISGSGGSTYYADSVKGRFTISRDNPKNTLYLQMNSLRAEDTALYYCAEDPGTSFDYWGQGTLVTVSS
VL: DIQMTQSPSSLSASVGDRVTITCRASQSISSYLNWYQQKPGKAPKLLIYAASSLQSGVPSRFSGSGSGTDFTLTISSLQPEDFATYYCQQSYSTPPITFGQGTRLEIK
B9: H1H15215P (antibody, V domains shown)
VH: EVQLVESGGGLVQPGGSLRLSCAASGFTFSTYGMSWVRQAPGKGLEWVSTIIGSGYNTYYSDSVKGRFTMSRDNSKSTLYLQMNSLRAEDTAVYYCTKEGPIIGTTNWGQGTLVTVSS
VL: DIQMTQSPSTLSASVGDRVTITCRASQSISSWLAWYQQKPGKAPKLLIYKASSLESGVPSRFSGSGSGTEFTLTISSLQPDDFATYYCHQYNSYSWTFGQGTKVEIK
B10: H1H15260P2 (antibody, V domains shown)
VH: QVQLQESGPGLVKPSETLSLTCSVSGGSITSSYWSWIRQPPGRGLEWIGYVYYYGTTKYNPSLKSRVTTSMDTSKNQFSLKLNSVTAADTAVYYCARLELLFDYWGQGTLVTVSS
VL: not shown
B11: H1H15249P2 (antibody, V domains shown)
VH: QLQLQESGPGLVKPSETLSLTCTVSGGSISNNNYYWGWIRQPPGKGLDWIGSIYYSGNTYYNPSLKSRVTISVDTSKNQFSLKMSSVTATDTALYYCARQGADHNWVDPWGQGTLVTVSS
VL: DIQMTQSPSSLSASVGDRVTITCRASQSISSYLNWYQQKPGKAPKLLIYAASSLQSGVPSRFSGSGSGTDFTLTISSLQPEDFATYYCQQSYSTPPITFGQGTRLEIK

Tests used:
[1] = target: MERS-CoV spike protein (EMC/2012), wt (MERS-CoV (isolate EMC/2012), UniProt K9N5Q8 18-1353); experiment: cell-based or functional assay
MERS-RBD-mFc = MERS-RBD-mFc (MERS-CoV (isolate EMC/2012), UniProt K9N5Q8 367-606); experiment: Octet BLI, MERS.mFc captured on the sensor, then mAb-1 applied

Row | Binder | IC50 against MERSpp [1] [nM] | IC50 against live virus (EMC2012) [1] [nM] | mAb-1 Binding (nm) (MERS-RBD-mFc)
1 | B1 | 0.0975 | 0.898 | 0.52
2 | B2 | 0.102 | 0.92 | 0.5
3 | B3 | 0.066 | 1.01 | 0.39
4 | B4 | 0.0873 | 1.37 | 0.46
5 | B5 | 0.0764 | 1.63 | 0.42
6 | B6 | 0.134 | 2.39 | 0.41
7 | B7 | 0.0827 | 2.41 | 0.46
8 | B8 | 0.151 | 2.42 | 0.38
9 | B9 | 0.192 | 2.67 | 0.56
10 | B10 | 0.0643 | 6.7 | 0.39
11 | B11 | 0.227 | 12 | 0.4
